Test results reported in patent US20250136720A1 (Boehringer Ingelheim, published 2025).
Where a chain is given by its changes, count along the chain named.

B1: CD137 #4 (B21.V25) + FAP #2 (A11 VK3/VH3) (bispecific antibody, human IgG1, kappa, L234A L235A)
heavy: not shown
light: DIQMTQSPSSLSASVGDRVTITCRASQSISTAVAWYQQKPGKAPKLLIYAASYLYSGVPSRFSGSGSGTDFTLTISSLQPEDFAVYYCQQHYSNPWTFGQGTKLEIKRTVAAPSVFIFPPSDEQLKSGTASVVCLLNNFYPREAKVQWKVDNALQSGNSQESVTEQDSKDSTYSLSSTLTLSKADYEKHKVYACEVTHQGLSSPVTKSFNRGEC
B2: CD137 #6 (B21.V37) + FAP #2 (A11 VK3/VH3) (bispecific antibody, human IgG1, kappa, L234A L235A)
heavy: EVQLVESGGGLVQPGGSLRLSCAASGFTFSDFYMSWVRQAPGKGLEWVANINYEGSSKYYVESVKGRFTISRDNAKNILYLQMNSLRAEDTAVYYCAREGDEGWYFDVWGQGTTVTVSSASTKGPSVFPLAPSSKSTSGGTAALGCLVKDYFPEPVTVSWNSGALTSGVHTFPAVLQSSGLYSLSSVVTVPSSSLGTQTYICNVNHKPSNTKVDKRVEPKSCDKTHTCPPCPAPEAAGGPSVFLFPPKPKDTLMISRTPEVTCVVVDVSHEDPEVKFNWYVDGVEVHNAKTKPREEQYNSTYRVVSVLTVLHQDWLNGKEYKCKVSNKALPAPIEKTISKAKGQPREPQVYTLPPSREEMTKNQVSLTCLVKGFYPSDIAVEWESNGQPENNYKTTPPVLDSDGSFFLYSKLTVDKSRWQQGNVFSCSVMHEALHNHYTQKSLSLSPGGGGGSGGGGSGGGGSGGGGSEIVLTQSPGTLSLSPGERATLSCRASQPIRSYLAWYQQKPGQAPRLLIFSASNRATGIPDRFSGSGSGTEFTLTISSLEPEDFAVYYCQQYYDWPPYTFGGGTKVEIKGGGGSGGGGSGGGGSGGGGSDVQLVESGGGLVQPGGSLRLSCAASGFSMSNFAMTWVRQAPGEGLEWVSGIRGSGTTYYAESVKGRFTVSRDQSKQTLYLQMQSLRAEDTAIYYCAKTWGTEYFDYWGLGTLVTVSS
light: B1 light with V33L, L54R
B3: CD137 #5 (B21.V29) + FAP #3 (A11 VK7/VH1) (bispecific antibody, human IgG1, kappa, L234A L235A)
heavy: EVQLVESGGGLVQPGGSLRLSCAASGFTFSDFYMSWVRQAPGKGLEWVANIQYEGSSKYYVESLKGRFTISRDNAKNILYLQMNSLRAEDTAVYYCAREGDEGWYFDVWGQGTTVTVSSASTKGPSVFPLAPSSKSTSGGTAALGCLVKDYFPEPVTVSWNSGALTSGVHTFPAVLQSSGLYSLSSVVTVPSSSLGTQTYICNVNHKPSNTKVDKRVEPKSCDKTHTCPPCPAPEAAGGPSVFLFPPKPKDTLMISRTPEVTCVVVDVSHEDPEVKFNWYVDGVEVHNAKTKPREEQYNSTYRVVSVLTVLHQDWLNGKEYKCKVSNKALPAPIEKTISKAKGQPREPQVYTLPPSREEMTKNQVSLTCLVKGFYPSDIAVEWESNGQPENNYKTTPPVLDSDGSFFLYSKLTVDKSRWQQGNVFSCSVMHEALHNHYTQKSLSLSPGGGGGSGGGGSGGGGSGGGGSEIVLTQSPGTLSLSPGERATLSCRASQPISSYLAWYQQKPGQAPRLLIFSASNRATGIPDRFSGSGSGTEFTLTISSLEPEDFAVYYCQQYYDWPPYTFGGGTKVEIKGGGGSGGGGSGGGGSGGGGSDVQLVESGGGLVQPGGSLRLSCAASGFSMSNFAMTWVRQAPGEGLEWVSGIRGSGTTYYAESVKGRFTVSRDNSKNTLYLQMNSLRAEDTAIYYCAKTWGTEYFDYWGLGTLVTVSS
light: B1 light with V33L, L54R
B4: CD137 #4 (B21.V25) + FAP #3 (A11 VK7/VH1) (bispecific antibody, human IgG1, kappa, L234A L235A)
heavy: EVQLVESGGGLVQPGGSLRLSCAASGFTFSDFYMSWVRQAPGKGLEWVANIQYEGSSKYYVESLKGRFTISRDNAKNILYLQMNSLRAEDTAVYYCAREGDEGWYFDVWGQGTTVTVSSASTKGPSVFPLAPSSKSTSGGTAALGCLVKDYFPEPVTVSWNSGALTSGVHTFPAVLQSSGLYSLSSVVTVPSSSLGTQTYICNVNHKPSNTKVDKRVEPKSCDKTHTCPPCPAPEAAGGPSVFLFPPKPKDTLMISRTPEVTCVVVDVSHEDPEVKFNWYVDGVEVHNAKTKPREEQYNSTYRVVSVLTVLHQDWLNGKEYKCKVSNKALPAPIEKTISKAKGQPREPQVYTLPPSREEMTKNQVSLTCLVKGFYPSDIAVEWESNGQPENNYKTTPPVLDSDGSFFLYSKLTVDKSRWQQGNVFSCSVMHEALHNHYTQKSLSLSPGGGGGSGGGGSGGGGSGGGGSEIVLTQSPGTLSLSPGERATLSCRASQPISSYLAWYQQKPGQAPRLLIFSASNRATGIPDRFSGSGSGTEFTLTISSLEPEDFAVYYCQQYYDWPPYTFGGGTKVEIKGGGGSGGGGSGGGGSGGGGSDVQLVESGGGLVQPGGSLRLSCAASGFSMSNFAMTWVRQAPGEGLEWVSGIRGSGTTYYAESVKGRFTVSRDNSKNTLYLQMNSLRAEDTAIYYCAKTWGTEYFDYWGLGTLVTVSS
light: B1 light
B5: CD137 #5 (B21.V29) + FAP #2 (A11 VK3/VH3) (bispecific antibody, human IgG1, kappa, L234A L235A)
heavy: not shown
light: B1 light with V33L, L54R
B6: CD137 #2 (B21.V16) + FAP #2 (A11 VK3/VH3) (bispecific antibody, human IgG1, kappa, L234A L235A)
heavy: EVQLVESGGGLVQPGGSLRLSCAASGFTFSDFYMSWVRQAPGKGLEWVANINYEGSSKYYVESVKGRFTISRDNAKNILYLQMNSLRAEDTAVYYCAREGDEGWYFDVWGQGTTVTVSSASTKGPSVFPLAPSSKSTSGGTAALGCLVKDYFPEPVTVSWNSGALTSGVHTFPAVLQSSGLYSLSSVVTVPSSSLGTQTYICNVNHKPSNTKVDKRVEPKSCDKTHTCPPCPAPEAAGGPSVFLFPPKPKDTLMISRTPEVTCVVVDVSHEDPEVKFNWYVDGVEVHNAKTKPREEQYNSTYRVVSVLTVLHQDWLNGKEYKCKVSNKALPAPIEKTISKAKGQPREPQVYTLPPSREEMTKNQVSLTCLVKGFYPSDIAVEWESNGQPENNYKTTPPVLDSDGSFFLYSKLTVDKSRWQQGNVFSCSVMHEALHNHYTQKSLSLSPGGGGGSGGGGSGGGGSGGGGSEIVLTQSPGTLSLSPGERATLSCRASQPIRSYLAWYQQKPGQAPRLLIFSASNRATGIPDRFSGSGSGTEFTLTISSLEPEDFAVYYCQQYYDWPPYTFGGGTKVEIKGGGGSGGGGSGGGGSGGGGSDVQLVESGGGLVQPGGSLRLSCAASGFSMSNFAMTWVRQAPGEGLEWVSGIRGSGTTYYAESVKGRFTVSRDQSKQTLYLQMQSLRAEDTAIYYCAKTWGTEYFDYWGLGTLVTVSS
light: B1 light with R24K, S28D, T31S, A50S, Y53S, L54R, S56T
B7: CD137 #6 (B21.V37) + FAP #3 (A11 VK7/VH1) (bispecific antibody, human IgG1, kappa, L234A L235A)
heavy: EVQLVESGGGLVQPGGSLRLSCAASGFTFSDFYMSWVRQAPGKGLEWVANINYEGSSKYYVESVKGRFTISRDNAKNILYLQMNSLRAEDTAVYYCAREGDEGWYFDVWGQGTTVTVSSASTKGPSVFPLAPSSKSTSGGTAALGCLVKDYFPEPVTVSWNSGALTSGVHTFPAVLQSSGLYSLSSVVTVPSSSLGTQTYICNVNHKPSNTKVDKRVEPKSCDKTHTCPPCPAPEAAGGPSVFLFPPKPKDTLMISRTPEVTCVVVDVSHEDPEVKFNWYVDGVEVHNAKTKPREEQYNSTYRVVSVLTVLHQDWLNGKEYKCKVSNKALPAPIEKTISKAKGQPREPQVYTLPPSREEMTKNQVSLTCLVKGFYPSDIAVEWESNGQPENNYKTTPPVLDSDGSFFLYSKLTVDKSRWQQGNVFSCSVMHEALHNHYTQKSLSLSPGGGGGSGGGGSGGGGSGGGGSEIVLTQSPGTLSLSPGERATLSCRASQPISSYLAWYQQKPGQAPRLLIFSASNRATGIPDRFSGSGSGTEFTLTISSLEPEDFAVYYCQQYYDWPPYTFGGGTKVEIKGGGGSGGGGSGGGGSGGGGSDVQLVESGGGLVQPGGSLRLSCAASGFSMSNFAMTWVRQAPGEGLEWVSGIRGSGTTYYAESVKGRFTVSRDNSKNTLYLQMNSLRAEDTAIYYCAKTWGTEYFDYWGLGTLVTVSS
light: B1 light with V33L, L54R
B8: CD137 #5 (B21.V29) + FAP #5 (C3 VK1/VH4) (bispecific antibody, human IgG1, kappa, L234A L235A)
heavy: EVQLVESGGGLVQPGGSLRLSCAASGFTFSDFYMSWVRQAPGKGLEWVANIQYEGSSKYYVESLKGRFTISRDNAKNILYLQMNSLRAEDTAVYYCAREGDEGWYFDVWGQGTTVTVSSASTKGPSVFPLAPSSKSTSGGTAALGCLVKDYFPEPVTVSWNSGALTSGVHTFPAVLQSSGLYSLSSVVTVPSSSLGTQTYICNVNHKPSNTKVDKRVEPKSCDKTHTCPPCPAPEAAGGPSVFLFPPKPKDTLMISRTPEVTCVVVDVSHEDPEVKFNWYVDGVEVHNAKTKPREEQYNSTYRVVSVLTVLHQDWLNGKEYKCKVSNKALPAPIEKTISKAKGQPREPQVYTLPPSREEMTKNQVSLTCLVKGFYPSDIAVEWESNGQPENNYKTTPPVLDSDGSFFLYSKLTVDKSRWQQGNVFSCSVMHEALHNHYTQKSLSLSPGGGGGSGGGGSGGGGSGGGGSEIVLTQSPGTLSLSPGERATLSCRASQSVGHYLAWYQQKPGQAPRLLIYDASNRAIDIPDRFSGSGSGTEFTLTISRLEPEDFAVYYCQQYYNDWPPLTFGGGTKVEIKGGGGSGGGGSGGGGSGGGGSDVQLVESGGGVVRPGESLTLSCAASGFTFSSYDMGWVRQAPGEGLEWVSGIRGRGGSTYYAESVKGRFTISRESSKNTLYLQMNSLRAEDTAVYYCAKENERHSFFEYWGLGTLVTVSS
light: B1 light with V33L, L54R
B9: CD137 #6 (B21.V37) + FAP #5 (C3 VK1/VH4) (bispecific antibody, human IgG1, kappa, L234A L235A)
heavy: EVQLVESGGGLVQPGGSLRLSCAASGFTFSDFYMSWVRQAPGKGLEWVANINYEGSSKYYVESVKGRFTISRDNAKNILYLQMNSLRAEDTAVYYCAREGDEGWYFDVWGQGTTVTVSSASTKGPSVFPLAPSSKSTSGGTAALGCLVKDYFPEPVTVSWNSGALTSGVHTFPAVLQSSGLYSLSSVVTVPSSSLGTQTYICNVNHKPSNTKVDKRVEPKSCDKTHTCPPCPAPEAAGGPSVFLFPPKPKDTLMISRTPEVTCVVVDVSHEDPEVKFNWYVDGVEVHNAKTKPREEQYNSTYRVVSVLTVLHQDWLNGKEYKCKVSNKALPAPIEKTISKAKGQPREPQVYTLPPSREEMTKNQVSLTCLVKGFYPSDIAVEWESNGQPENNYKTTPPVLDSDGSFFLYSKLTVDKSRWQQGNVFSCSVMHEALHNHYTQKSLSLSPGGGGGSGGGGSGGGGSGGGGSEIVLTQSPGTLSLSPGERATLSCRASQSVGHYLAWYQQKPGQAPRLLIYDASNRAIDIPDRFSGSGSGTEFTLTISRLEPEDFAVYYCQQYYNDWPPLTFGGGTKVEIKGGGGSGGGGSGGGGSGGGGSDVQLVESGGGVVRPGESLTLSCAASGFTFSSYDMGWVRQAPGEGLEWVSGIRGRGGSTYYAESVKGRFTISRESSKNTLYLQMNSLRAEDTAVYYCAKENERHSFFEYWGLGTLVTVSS
light: B1 light with V33L, L54R
B10: CD137 #8 (A49.V43) + FAP #5 (C3 VK1/VH4) (bispecific antibody, human IgG1, kappa, L234A L235A)
heavy: not shown
light: EIVMTQSPLSLPVTPGEPASISCRSSQSLLYSNGYNHLDWYLQKPGQSPQLLIYLGSNRASGVPDRFSGSGSGTDFTLKISRVEAEDVGVYYCMQALQTPPTFGQGTKLEIKRTVAAPSVFIFPPSDEQLKSGTASVVCLLNNFYPREAKVQWKVDNALQSGNSQESVTEQDSKDSTYSLSSTLTLSKADYEKHKVYACEVTHQGLSSPVTKSFNRGEC
B11: CD137 #8 (A49.V43) + FAP #2 (A11 VK3/VH3) (bispecific antibody, human IgG1, kappa, L234A L235A)
heavy: not shown
light: B10 light
B12: CD137 #8 (A49.V43) + FAP #3 (A11 VK7/VH1) (bispecific antibody, human IgG1, kappa, L234A L235A)
heavy: not shown
light: B10 light

Columns and labels:
[1] = biological target: T1, Human CD137 on Jurkat cells (human, UniProt Q07011 24-255); assay: cell-based or functional assay
[2] = biological target: T1, Human CD137 on Jurkat cells; assay: cell-based or functional assay; set-up: IC90; Jurkat-CD137 NFkB-luciferase, HT1080-FAP co-culture / EC90; Jurkat-CD137 NFkB-luciferase, HT1080-FAP co-culture: unit not given beside the values

| Binder | Average EC50; Jurkat-CD137 NFkB-luciferase, HT1080-FAP co-culture [1] [nM] | Average EC90; Jurkat-CD137 NFkB-luciferase, HT1080-FAP co-culture [1] [nM] | Average IC50; Jurkat-CD137 NFkB-luciferase, HT1080-FAP co-culture [1] [nM] | Average IC90; Jurkat-CD137 NFkB-luciferase, HT1080-FAP co-culture [1] [nM] | Ratio IC50/EC50; Jurkat-CD137 NFkB-luciferase, HT1080-FAP co-culture [1] | Ratio IC90/EC90; Jurkat-CD137 NFkB-luciferase, HT1080-FAP co-culture [1] | EC90; Jurkat-CD137 NFkB-luciferase, HT1080-FAP co-culture [2] | IC90; Jurkat-CD137 NFkB-luciferase, HT1080-FAP co-culture [2] | Total AUC; Jurkat-CD137 NFkB-luciferase, HT1080-FAP co-culture [2] |
| --- | --- | --- | --- | --- | --- | --- | --- | --- | --- |
| B1 | 0.273 | 0.738 | 888 | 84 | 3260 | 114 | 0.65 | 46.9 | 3.3e+06 |
| B2 | 0.153 | 1.07 | 314 | 105 | 2060 | 98.1 | 0.55 | 53.6 | 4e+06 |
| B3 | 0.09 | 0.671 | 347 | 52.8 | 3840 | 78.6 | 0.52 | 51.9 | 2.9e+06 |
| B4 | 0.248 | 1.51 | 747 | 79.2 | 3010 | 52.3 | 2.55 | 492 | 2.5e+06 |
| B5 | 0.16 | 0.883 | 444 | 86.7 | 2780 | 98.1 | 0.78 | 62.8 | 2.9e+06 |
| B6 | 0.165 | 1.47 | 847 | 87.8 | 5130 | 59.7 | 3.14 | 127 | 3.3e+06 |
| B7 | 0.141 | 1.43 | 756 | 165 | 5370 | 115 | 2.34 | 258 | 3.5e+06 |
| B8 | 0.115 | 0.644 | 319 | 69.2 | 2790 | 107 | 0.8 | 35.7 | 3.2e+06 |
| B9 | 0.054 | 0.315 | 191 | 13.8 | 3520 | 43.8 | 0.47 | 13.8 | 3.6e+06 |
| B10 | 0.166 | 1.43 | 624 | 84.6 | 3750 | 59.4 | 0.98 | 54 | 3.18e+07 |
| B11 | 0.327 | 2.59 | 958 | 210 | 2930 | 81.2 | 5.04 | 467 | 2.5e+07 |
| B12 | 0.17 | 1.01 | 362 | 58.3 | 2130 | 57.6 | 0.96 | 60.8 | 3.15e+07 |
